The source of these data is publication PMC4140777, “Recognition of Bungarus multicinctus Venom by a DNA Aptamer against β-Bungarotoxin”.

This series concerns the target α-bungarotoxin (α-BuTx) (Bungarus multicinctus, UniProt P60615 22-95). The series is described as follows: 20 mM HEPES pH 7.4, 150 mM NaCl, 5 mM KCl, 2 mM MgCl2, 2 mM CaCl2, room temperature. The conditions noted are these: protein: commercial; label: 5'-FAM (FA, filter, EMSA); biotin (ELAA); stem-loop (predicted).

Chain of α-bungarotoxin (α-BuTx) (P60615 22-95): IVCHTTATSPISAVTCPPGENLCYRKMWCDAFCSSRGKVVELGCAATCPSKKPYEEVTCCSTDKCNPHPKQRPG

B1: βB-1 (ssDNA)
DNA: AGCAGCACAGAGGTCAGATGGTTTTCCCCTTGTCGCTTTTGGTTCGTTCTGCCTCTATCTCCTATGCGTGCTACCGTGAA
Consider B1, for which the binding result was “no binding”.
